These results are taken from US20080105961A1, “Ligands of the Molecule Fit (Agt-121) and their Pharmaceutical Use” (priority 2004, published 2008).

The target of experiment [1] is T1, FIT-NP (FIT N-terminal plus proline-rich region) (Homo sapiens, UniProt Q9BQI5).
T1 construct: expressed in transfected cells
T1 sequence (Q9BQI5 with tags, fused parts or gaps I33M/P40L/N43H/V56A/I186T/P191L/T195L/E211G/Q212H/I230V/T240A/N255T/I269V/G270A/P271T/S276A/V280A/L285P/N289S/A308T/K311T/T318A/S335T/T339A/P340S/N342I/A348T/L352P/P357S/T358A/DEL367-367/L371P/I397L/D402E/F403C/A409E/P432S/P434T/T437A/R454S/S455C/T456S): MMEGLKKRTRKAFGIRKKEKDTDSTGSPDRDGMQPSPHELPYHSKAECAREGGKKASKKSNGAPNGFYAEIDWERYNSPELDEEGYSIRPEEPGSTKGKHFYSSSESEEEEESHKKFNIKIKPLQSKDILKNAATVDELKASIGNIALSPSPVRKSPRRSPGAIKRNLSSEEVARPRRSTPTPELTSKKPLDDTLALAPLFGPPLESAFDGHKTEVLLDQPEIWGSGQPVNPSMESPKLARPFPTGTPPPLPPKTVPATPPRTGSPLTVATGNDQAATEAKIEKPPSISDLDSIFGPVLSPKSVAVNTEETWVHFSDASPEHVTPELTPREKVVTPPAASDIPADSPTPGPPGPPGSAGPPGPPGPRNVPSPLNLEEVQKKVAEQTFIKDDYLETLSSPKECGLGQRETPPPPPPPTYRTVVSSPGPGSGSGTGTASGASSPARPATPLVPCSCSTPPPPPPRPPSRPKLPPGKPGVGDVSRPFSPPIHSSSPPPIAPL
The experiment is described as follows: Yeast two-hybrid screen of human brain cDNA library, bait FIT-NP. It is filed as binding. The note with it: for Number of clones: bait FIT-NP, human brain cDNA library, clones listed highest to lowest interacting strength. The text has this: (§1) In order to perform these experiments, two truncated fragments of FIT were constructed to be used as baits in a yeast two-hybrid screen of a human brain cDNA library: one bait consisting of the N-terminal region plus the central proline-rich region, and the other bait consisting of the central proline-rich region alone. The inventors utilised a yeast two-hybrid system which incorporates modifications by Chevray and Nathans (1992), and Vidal et al. (1996) to screen a human brain cDNA library. FIT fragments were PCR amplified, purified and then cloned into an appropriate vector. Sense oligonucleotides for FIT-NP (5′-[…]-3′: SEQ ID NO:72), and FIT-PR (5′-[…]-3′: SEQ ID NO:73), with Sal1 restriction enzyme sites underlined, were used in conjunction with a common antisense oligonucleotide (5′-[…]-3′: SEQ ID NO:74), with the Not1 restriction enzyme site underlined.
(§2) Human brain cDNA inserts were prepared and cloned into the expression vector according to manufacturer's instructions.

The target in experiment [2] is T2, FIT-PR (FIT proline-rich region) (Homo sapiens, UniProt Q9BQI5).
T2 construct: expressed in transfected cells
T2 sequence (Q9BQI5 with tags, fused parts or gaps N255T/I269V/G270A/P271T/S276A/V280A/L285P/N289S/A308T/K311T/T318A/S335T/T339A/P340S/N342I/A348T/L352P/P357S/T358A/DEL367-367/L371P/I397L/D402E/F403C/P432S/P434T/T437A/R454S/S455C/T456S): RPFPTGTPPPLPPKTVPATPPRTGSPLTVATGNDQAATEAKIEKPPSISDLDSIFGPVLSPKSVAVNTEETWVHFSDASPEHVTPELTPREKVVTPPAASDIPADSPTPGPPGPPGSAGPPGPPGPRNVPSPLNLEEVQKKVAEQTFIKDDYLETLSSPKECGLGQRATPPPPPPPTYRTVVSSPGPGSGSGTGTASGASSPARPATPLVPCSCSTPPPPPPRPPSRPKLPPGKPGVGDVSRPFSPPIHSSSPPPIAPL
The experiment is described as follows: Yeast two-hybrid screen of human brain cDNA library, bait FIT-PR. The following applies: clones listed highest to lowest interacting strength. In kind it is binding.
Description: as §1, with “To investigate the mechanism by which FIT regulates energy balance, neural proteins that interact with FIT were identified. In” for “In”
as §2

B1: endophilin 1: FIT interacting protein isolated from a human brain cDNA library (protein)
chain: MSVAGLKKQFHKATQKVSEKVGGAEGTKLDDDFKEMERKVDVTSRAVMEIMTKTIEYLQPNPASRAKLSMINTMSKIRGQEKGPGYPQAEALLAEAMLKFGRELGDDCNFGPALGEVGEAMRELSEVKDSLDIEVKQNFIDPLQNLHDKDLREIQHHLKKLEGRRLDFDYKKKRQGKIPDEELRQALEKFDESKEIAESSMFNLLEMDIEQVSQLSALVQAQLEYHKQAVQILQQVTVRLEERIRQASSQPRREYQPKPRMSLEFPTGDSTQPNGGLSHTGTPKPSGVQMDQPCCRALYDFEPENEGELGFKEGDIITLTNQIDENWYEGMLHGHSGFFPINYVEILVALPH
modifications: left off: large carriers
B1: the Number of clones in experiment [1] was determined as 14; in experiment [2], 12. Besides, the “strength of interaction with FIT” value in experiment [1] (in yeast) was “very strongly”.

B2: Homo sapiens regulatory factor X, 2 (RFX2): FIT interacting protein isolated from a human brain cDNA library (protein)
chain: MQNSEGGADSPASVALRPSAAAPPVPASPQRVLVQAASSNPKGAQMQPISLPRVQQVPQQVQPVQHVYPAQVQYVEGGDAVYTNGAIRTAYTYNPEPQMYAPSSTASYFEAPGGAQVTVAASSPPAVPSHSMVGITMDVGGSPIVSSAGAYLIHGGMDSTRHSLAHTSRSSPATLEMAIENLQKSEGITSHKSGLLNSHLQWLLDNYETAEGVSLPRSSLYNHYLRHCQEHKLDPVNAASFGKLIRSVFMGLRTRRLGTRGNSKYHYYGIRLKPDSPLNRLQEDTQYMAMRQQPMHQKPRYRPAQKTDSLGDSGSHSGLHSTPEQTMAVQSQHHQQYIDVSHVFPEFPAPDLGSFLLQDGVTLHDVKALQLVYRRHCEATVDVVMNLQFHYIEKLWLSFWNSKASSSDGPTSLPASDEDPEGAVLPKDKLISLCQCDPILRWMRSCDHILYQALVEILIPDVLRPVPSTLTQAIRNFAKSLEGWLTNAMSDFPQQVIQTKVGVVSAFAQTLRRYTSLNHLAQAARAVLQNTSQINQMLSDLNRVDFANVQEQASWVCQCEESVVQRLEQDFKLTLQQQSSLDQWASWLDSVVTQVLKQHAGSPSFPKAARQFLLKWSFYSSMVIRDLTLRSAASFGSFHLIRLLYDEYMFYLVEHRVAEATGETPIAVMGEFNDLASLSLTLLDKDDMGDEQRGSEAGPDARSLGEPLVKRERSDPNHSLQGI
modifications: left off: large carriers
Turning to B2, the Number of clones in experiment [1] amounted to 10; in experiment [2] it was 1.
